Earlier results in PMC11581309.
Each block holds one substance with its values, some of them ahead of it.

Key:
CDH1 (Mus musculus) = CDH1 (Mus musculus) (UniProt P09803)
CDH2 (Mus musculus) = CDH2 (Mus musculus) (UniProt P15116)
CDH2 (Gallus gallus) = CDH2 (Gallus gallus) (UniProt P10288)
CDH2 (Homo sapiens) = CDH2 (Homo sapiens) (UniProt P19022)
CDH1 (Gallus gallus) = CDH1 (Gallus gallus) (UniProt P08641)
CDH1 (Homo sapiens) = CDH1 (Homo sapiens) (UniProt P12830)

Kd (CDH2 (Mus musculus)): 22.6 µM
Substance: CDH2 (from UniProt P15116)

Kd (CDH1 (Gallus gallus)): 110 µM
Substance: CDH1 (from UniProt P08641)

Kd (CDH1 (Homo sapiens)): 217 µM
Substance: CDH1 (from UniProt P12830)

Second part, the substance before the results:

Substance: CDH1 (from UniProt P09803)
Kd (CDH1 (Mus musculus)): 160 µM

Substance: CDH2 (from UniProt P10288)
Kd (CDH2 (Gallus gallus)): 20.4 µM

Substance: CDH2 (from UniProt P19022)
Kd (CDH2 (Homo sapiens)): 22.1 µM
